Literature values as cited in PMC3138520.

Biological target: NRG-1β (Homo sapiens) (UniProt Q02297)
Sequence of UniProt Q02297 (Q02297 20-241): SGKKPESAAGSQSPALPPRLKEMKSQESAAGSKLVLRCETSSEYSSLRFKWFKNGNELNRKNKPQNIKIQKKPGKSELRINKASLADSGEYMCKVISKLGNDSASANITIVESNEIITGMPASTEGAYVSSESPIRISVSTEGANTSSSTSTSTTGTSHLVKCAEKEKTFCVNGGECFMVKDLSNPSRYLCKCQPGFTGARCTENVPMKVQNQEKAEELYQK

- Kd: 10 nM
Substance: HER3 (from UniProt P21860)
